Experimental data: PMC7311918, “Structures of Human Antibodies Bound to SARS-CoV-2 Spike Reveal Common Epitopes and Recurrent Features of Antibodies” (Cell, 2020)
“And” between values parts separate entries of the source, which are not always exact repeats. Equal values may be shown once.

Target: T1, SARS-CoV-2 S 2P trimer (S ectodomain, residues 16-1206) (SARS-CoV-2, early isolate GenBank …, UniProt P0DTC2, stabilised)
T1 construct: also called SARS-CoV-2 S protein; SARS-CoV-2 S trimer
Assay: cryo-EM structure
Conditions: both partners purified

B1: C105 Fab (Fab, V domains shown)
VH: QVQLVESGGGLIQPGGSLRLSCAASGFTVSSNYMSWVRQAPGKGLEWVSVIYSGGSTYYADSVKGRFTISRDNSKNTLYLQMNSLRAEDTAVYYCARGEGWELPYDYWGQGTLVTVSS
VL: QSALTQPPSASGSPGQSVTISCTGTSSDVGGYKYVSWYQQHPGKAPKLMIYEVSKRPSGVPDRFSGSKSGNTASLTVSGLQAEDEADYYCSSYEGSNNFVVFGGGTKLTVL
notes: also called mAb C105
stoichiometry N: 2 Fabs per S trimer and 3 Fabs per S trimer
